In publication doi:10.1101/2021.11.03.467182:

Biological target: SARS-CoV-2 NTD-RBD-foldon (SARS-CoV-2 (strain Wuhan-1/2020) | bacteriophage T4) (UniProt P0DTC2)
Experiment: SEC-MALS

**Q.** For “SARS-CoV-2 NTD-RBD-foldon (from UniProt P0DTC2 14-541)”, which stoichiometry N is on record?
**A.** The stoichiometry N was 3.
